Test results: the supplement of paper PMC9112550, “Optimization of the antimicrobial peptide Bac7 by deep mutational scanning” (BMC Biology, 2022)

Tested on: Escherichia coli TOP10
Assay: shrunken log2 fold change of peptide-encoding DNA abundance (4.5 h post-induction vs induction); higher = less antimicrobial activity (less host growth inhibition)
Details: time post-induction: 4.5 h; library: site-saturation at positions 5, 18, 19, 20
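Note: peptides expressed intracellularly from a pBAD plasmid library in pooled LB shake-flask culture, induced with 0.3% L-arabinose, DNA abundance read by NGS, three biological replicates, DESeq2 with apeglm shrinkage.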

| Sequence | shrunken log2 fold change |
| --- | --- |
| RRIRVRPPRLPRPRPRPKNFPRP | 0.0772 |
| RRIRFRPPRLPRPRPRPGTYPRP | -0.851 |
| RRIRHRPPRLPRPRPRPARWPRP | 0.386 |
| RRIRTRPPRLPRPRPRPPLAPRP | 0.65 |
| RRIRARPPRLPRPRPRPHMPPRP | -0.419 |
| RRIRERPPRLPRPRPRPGRDPRP | 0.419 |
| RRIRSRPPRLPRPRPRPHHKPRP | -0.564 |
| RRIRERPPRLPRPRPRPGGLPRP | -0.00977 |
| RRIRFRPPRLPRPRPRPNQWPRP | -0.21 |
| RRIRARPPRLPRPRPRPSFKPRP | -0.109 |
| RRIRSRPPRLPRPRPRPTINPRP | -0.229 |
| RRIRMRPPRLPRPRPRPWDCPRP | 0.00902 |
| RRIRNRPPRLPRPRPRPGRVPRP | 0.296 |
| RRIRCRPPRLPRPRPRPSMNPRP | -0.757 |
| RRIRHRPPRLPRPRPRPVKAPRP | -0.0779 |
| RRIRGRPPRLPRPRPRPVSQPRP | 0.795 |
| RRIRIRPPRLPRPRPRPCAKPRP | 0.0416 |
| RRIRARPPRLPRPRPRPHHSPRP | -0.404 |
| RRIRSRPPRLPRPRPRPAETPRP | 0.114 |
| RRIRARPPRLPRPRPRPHHEPRP | -0.119 |
| RRIRCRPPRLPRPRPRPAGTPRP | -0.202 |
| RRIRSRPPRLPRPRPRPKFSPRP | 0.0488 |
| RRIRHRPPRLPRPRPRPYKRPRP | -0.051 |
| RRIRRRPPRLPRPRPRPHSQPRP | 0.0866 |
| RRIRLRPPRLPRPRPRPVKMPRP | -0.327 |

| Sequence | shrunken log2 fold change |
| --- | --- |
| RRIRIRPPRLPRPRPRPHPVPRP | 0.0514 |
| RRIRQRPPRLPRPRPRPMYFPRP | -0.448 |
| RRIRQRPPRLPRPRPRPQFNPRP | -0.6 |
| RRIRMRPPRLPRPRPRPPWIPRP | 0.248 |
| RRIRARPPRLPRPRPRPRNPPRP | 0.225 |
| RRIRIRPPRLPRPRPRPAECPRP | -0.311 |
| RRIRNRPPRLPRPRPRPDIAPRP | -0.0447 |
| RRIRLRPPRLPRPRPRPCHKPRP | -0.278 |
| RRIRNRPPRLPRPRPRPIATPRP | -0.0576 |
| RRIRARPPRLPRPRPRPFTMPRP | -0.378 |
| RRIRTRPPRLPRPRPRPWLHPRP | -0.166 |
| RRIRQRPPRLPRPRPRPPGWPRP | -0.0951 |
| RRIRCRPPRLPRPRPRPMTYPRP | -0.185 |
| RRIRPRPPRLPRPRPRPPGDPRP | 0.567 |
| RRIRYRPPRLPRPRPRPIYVPRP | -1.88 |
| RRIRDRPPRLPRPRPRPVNMPRP | -0.296 |
| RRIRWRPPRLPRPRPRPMIGPRP | 0.384 |
| RRIRLRPPRLPRPRPRPLFHPRP | -0.233 |
| RRIRQRPPRLPRPRPRPQLMPRP | -0.166 |
| RRIRHRPPRLPRPRPRPSGFPRP | 0.112 |
| RRIRCRPPRLPRPRPRPPGEPRP | 0.609 |
| RRIRIRPPRLPRPRPRPDWDPRP | -0.318 |
| RRIRIRPPRLPRPRPRPVHFPRP | -0.355 |
| RRIRLRPPRLPRPRPRPNMIPRP | -0.571 |
| RRIRARPPRLPRPRPRPDIPPRP | -0.192 |
